# According to PMC3844621:
# Assays:
# [1] = target: T1-S18.45 Q31A scTv, yeast-displayed (human); experiment: flow cytometry on cells
# [2] = target: T1 scTCR with wild-type CDR loops (stabilized version), Y51A, soluble (human); experiment: SPR
substance,measurement,setting,value
MART-1/HLA-A2-biotin monomer (UV peptide exchange) (from UniProt P61769 21-119) (peptide-MHC),other,[1],> 15 fold
MART-1/HLA-A2 of the steady-state SPR (peptide variant not stated) (from UniProt P61769 21-119) (peptide-MHC),Kd,[2],> 1000 µM
